Results: publication PMC12210187

Molecular target: Stenotrophomonas maltophilia EntB (Stenotrophomonas maltophilia K279a)
Experiment: SEC; analytical size-exclusion chromatography; estimated molecular weight 61.8 kDa

stoichiometry N: 2
Substance: Stenotrophomonas maltophilia EntB (enzyme)
